{
  "source": "the Human Domainome abundance scans (Beltran et al. 2025)",
  "parents": {"B1": {"name": "Far upstream element-binding protein 1, residues 184 to 257; numbered along this chain, Q96AE4 (parent)", "chain": "GNAVQEIMIPASKAGLVIGKGGETIKQLQERAGVKMVMIQDGPQNTGADKPLRITGDPYKVQQAKEMVLELIRD"}},
  "note": "± gives the uncertainty stated by the source.",
  "data": [
    {"variants_of": "B1", "assay": "abundance fitness (aPCA) (normalised: wild type 0, dead -1); higher = more abundant; growth selection in yeast, the domain comes from the species named", "settings": "Homo sapiens", "values": [
      {"variant": "GNAVQEIMIPASKAGLVIGKGGETIKQLQERAGVKMVMIQDGPQNTGADKPLRITGDPYKVQQAKESVLELIRD", "note": "[M67S]", "abundance fitness": "-0.078 ± 0.031"},
      {"variant": "GNAVQEIMIPASKAGLVIGKGGETIKQLQERAGVKMVMIQDGPQNTGADKPLRITGDPYKVQQAKEKVLELIRD", "note": "[M67K]", "abundance fitness": "-0.111 ± 0.039"},
      {"variant": "GNAVQEIMIPASKAGLVIGKGGETIKQLQERAGVKMVMIQDGPQNTGADKPLRITGDPYKVQQAKEIVLELIRD", "note": "[M67I]", "abundance fitness": "-0.128 ± 0.051"},
      {"variant": "GNAVQEIMIPASKAGLVIGKGGETIKQLQERAGVKMVMIQDGPQNTGADKPLRITGDPYKVQQAKEMVLELHRD", "note": "[I72H]", "abundance fitness": "-0.524 ± 0.06"},
      {"variant": "GNAVQEIMIPASKAGLVIGKGGETIKQLQERAGVKMVMIQDGPRNTGADKPLRITGDPYKVQQAKEMVLELIRD", "note": "[Q44R]", "abundance fitness": "-0.048 ± 0.028"},
      {"variant": "GNAVQEIMIPASKAGLVIGKGGETIKQLQERAGVKMVMIQDGPQNTGADKPLRIWGDPYKVQQAKEMVLELIRD", "note": "[T55W]", "abundance fitness": "-0.115 ± 0.037"},
      {"variant": "GNAVQEIMIPASKAGLVIGKGGETIKQLQERAGVKMVMIQDGPQNTGADKPLRIVGDPYKVQQAKEMVLELIRD", "note": "[T55V]", "abundance fitness": "-0.047 ± 0.031"},
      {"variant": "GNAVQEIMIPASKAGLVIGKGGETIKQLQERAGVKMVMIQDGPQNTGADKPLRIMGDPYKVQQAKEMVLELIRD", "note": "[T55M]", "abundance fitness": "-0.008 ± 0.042"},
      {"variant": "GNAVQEIMIPASKAGLVIGKGGETIKQLQERAGVKMVMIQDGPQNTGADKPLRITGDPYKVQQAKEMQLELIRD", "note": "[V68Q]", "abundance fitness": "-0.441 ± 0.044"},
      {"variant": "GNAVQEIMIPASKAGLVIGKGGETIKQLQERAGVKMVMIQDGPQNTGADKTLRITGDPYKVQQAKEMVLELIRD", "note": "[P51T]", "abundance fitness": "-0.018 ± 0.035"},
      {"variant": "GNAVQEIMIPASKAGLVIGKGGETIKQLQERAGVKMVMIQDGPQNTGADKELRITGDPYKVQQAKEMVLELIRD", "note": "[P51E]", "abundance fitness": "-0.014 ± 0.039"},
      {"variant": "GNAVQEIMIPASKAGLVIGKGGETIKQLQERAGVKMVMIQDGPQNTGADKPLNITGDPYKVQQAKEMVLELIRD", "note": "[R53N]", "abundance fitness": "-0.257 ± 0.064"},
      {"variant": "GNAVQEIMIPASKAGLVPGKGGETIKQLQERAGVKMVMIQDGPQNTGADKPLRITGDPYKVQQAKEMVLELIRD", "note": "[I18P]", "abundance fitness": "-0.292 ± 0.032"},
      {"variant": "GNAVQEIMIPASKAGLVRGKGGETIKQLQERAGVKMVMIQDGPQNTGADKPLRITGDPYKVQQAKEMVLELIRD", "note": "[I18R]", "abundance fitness": "-0.104 ± 0.026"},
      {"variant": "GNAVQEIMIPASKAGLVIGKGGETIKQLQERAGVKMVMIQDGPQNTGADKPLRITGYPYKVQQAKEMVLELIRD", "note": "[D57Y]", "abundance fitness": "-0.208 ± 0.047"},
      {"variant": "GNAVQEIMIPASKAGLVIGKQGETIKQLQERAGVKMVMIQDGPQNTGADKPLRITGDPYKVQQAKEMVLELIRD", "note": "[G21Q]", "abundance fitness": "-0.028 ± 0.035"},
      {"variant": "GNAVQEIQIPASKAGLVIGKGGETIKQLQERAGVKMVMIQDGPQNTGADKPLRITGDPYKVQQAKEMVLELIRD", "note": "[M8Q]", "abundance fitness": "-0.03 ± 0.04"},
      {"variant": "GNAVQEIPIPASKAGLVIGKGGETIKQLQERAGVKMVMIQDGPQNTGADKPLRITGDPYKVQQAKEMVLELIRD", "note": "[M8P]", "abundance fitness": "-0.094 ± 0.036"},
      {"variant": "GNAVQEIWIPASKAGLVIGKGGETIKQLQERAGVKMVMIQDGPQNTGADKPLRITGDPYKVQQAKEMVLELIRD", "note": "[M8W]", "abundance fitness": "-0.164 ± 0.034"},
      {"variant": "GNAVQEIMIPASKAGLVIGKGGETIKQLQERAGVKMSMIQDGPQNTGADKPLRITGDPYKVQQAKEMVLELIRD", "note": "[V37S]", "abundance fitness": "-0.048 ± 0.031"},
      {"variant": "GNAVQEIMIPASKAGLVIGKGGETIKQLQERAEVKMVMIQDGPQNTGADKPLRITGDPYKVQQAKEMVLELIRD", "note": "[G33E]", "abundance fitness": "-0.081 ± 0.034"},
      {"variant": "GNAVQEIMIPASKAGLVIGKGGETIKQLQERAAVKMVMIQDGPQNTGADKPLRITGDPYKVQQAKEMVLELIRD", "note": "[G33A]", "abundance fitness": "-0.171 ± 0.032"},
      {"variant": "GNAVQEIMIPASKAGLVIGKGGETIKQLQERAQVKMVMIQDGPQNTGADKPLRITGDPYKVQQAKEMVLELIRD", "note": "[G33Q]", "abundance fitness": "-0.057 ± 0.042"},
      {"variant": "GNAVQEIMIPASKAGLVIGKGGETIKQLQERAGVKMVMIQLGPQNTGADKPLRITGDPYKVQQAKEMVLELIRD", "note": "[D41L]", "abundance fitness": "-0.095 ± 0.031"},
      {"variant": "GNAVQEIMIPASKAGLVIGKGGETIKQLQERAGVKMVMIQDGPQNTLADKPLRITGDPYKVQQAKEMVLELIRD", "note": "[G47L]", "abundance fitness": "-0.069 ± 0.031"},
      {"variant": "GNAVQEIMIPASKAGPVIGKGGETIKQLQERAGVKMVMIQDGPQNTGADKPLRITGDPYKVQQAKEMVLELIRD", "note": "[L16P]", "abundance fitness": "-0.581 ± 0.038"},
      {"variant": "GNAVQEIMIPASKAGIVIGKGGETIKQLQERAGVKMVMIQDGPQNTGADKPLRITGDPYKVQQAKEMVLELIRD", "note": "[L16I]", "abundance fitness": "-0.048 ± 0.055"},
      {"variant": "GNAVQEIMIPASKAGLVITKGGETIKQLQERAGVKMVMIQDGPQNTGADKPLRITGDPYKVQQAKEMVLELIRD", "note": "[G19T]", "abundance fitness": "-0.371 ± 0.039"},
      {"variant": "GNAVQEIMIPASKAGLVIGKGGETIKQLQERAGVKMVMNQDGPQNTGADKPLRITGDPYKVQQAKEMVLELIRD", "note": "[I39N]", "abundance fitness": "0.014 ± 0.051"},
      {"variant": "GNAVQEIMIPASKAGLVIGKGGETIKQLQERAGVKMVMIQDGPQNTGADKPLRITGDPYKVQQSKEMVLELIRD", "note": "[A64S]", "abundance fitness": "-0.228 ± 0.031"},
      {"variant": "GNAVQEIMIPASKAGLVIGKGGETIKQLQERAGVKMVMIQDGPQNTGADKPLRITGDPYKVQQCKEMVLELIRD", "note": "[A64C]", "abundance fitness": "-0.118 ± 0.042"},
      {"variant": "GNAVQEIMIPASKAGLVIGKGGETIKQLQERAGVKMVMIQDGPQNTGWDKPLRITGDPYKVQQAKEMVLELIRD", "note": "[A48W]", "abundance fitness": "-0.124 ± 0.034"},
      {"variant": "GNAVQEIMIPASKAGLVIGKGGETIKQLQERAGVKMVMIQDGPQNTGGDKPLRITGDPYKVQQAKEMVLELIRD", "note": "[A48G]", "abundance fitness": "0.002 ± 0.027"},
      {"variant": "GNAVQEIMIPASKAGLVIGKGGETIKQLQERAGVKMVMIQDGPQNTGADKPLRMTGDPYKVQQAKEMVLELIRD", "note": "[I54M]", "abundance fitness": "-0.074 ± 0.037"},
      {"variant": "GNAVQEIMIPASKAGLVIGKGGETIKQLQERAGVKMVMIQDGPQNTGADKPLRITGDPYKVQQAKEMVIELIRD", "note": "[L69I]", "abundance fitness": "-0.102 ± 0.048"},
      {"variant": "GNAVQEIMIPASKAGLVIGKGGETIKQLQERAGVKMVMIQDGPQNTGADKPLRITGDPYKVQQAKEMVLELIRH", "note": "[D74H]", "abundance fitness": "-0.167 ± 0.051"},
      {"variant": "GNAVQEIMIPASKAGLVIGKGGETIKQLQERAGVKMVMIQDGPQNTGADKPLRITGDPYKVQQAKEMVLESIRD", "note": "[L71S]", "abundance fitness": "-0.218 ± 0.031"}
    ]}
  ]
}
